From paper PMC2668188, “In Vitro Recombination Catalyzed by Bacterial Class 1 Integron Integrase IntI1 Involves Cooperative Binding and Specific Oligomeric Intermediates”

T1: IntI1(His)6 integron integrase (Pseudomonas aeruginosa Pa695 (class 1 …, UniProt Q7BP41 1-337))
T1 sequence: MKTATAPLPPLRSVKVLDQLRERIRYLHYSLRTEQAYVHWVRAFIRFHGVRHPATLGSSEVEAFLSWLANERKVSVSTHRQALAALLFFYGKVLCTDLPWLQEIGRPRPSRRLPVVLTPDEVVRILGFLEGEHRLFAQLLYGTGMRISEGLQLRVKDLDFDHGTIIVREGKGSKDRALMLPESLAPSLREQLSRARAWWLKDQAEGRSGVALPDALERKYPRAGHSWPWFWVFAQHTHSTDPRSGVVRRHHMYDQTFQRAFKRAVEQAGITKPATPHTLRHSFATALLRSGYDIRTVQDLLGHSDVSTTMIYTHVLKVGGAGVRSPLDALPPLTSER


Experiments:
[1] = biological target: T1, IntI1(His)6 integron integrase; assay: EMSA; EMSA: 0.1 pmol DNA, 1-15 pmol IntI1 in 20 µl, 20 min at 4°C, 1% agarose at 4°C; filter binding wash: HEPES 20 mM pH 7.5, MnCl2 10 mM, NaCl 30 mM (binding buffer itself not given); conditions: protein: recombinant; tags: His6; chain copies: 2; label: 5' 32P; blunt
[2] = biological target: T1, IntI1(His)6 integron integrase; assay: EMSA; filter binding; preincubated with dsattI1 (0.1 pmol); binding strongly increased, almost to bsattC level; EMSA: 0.1 pmol DNA, 1-15 pmol IntI1 in 20 µl, 20 min at 4°C, 1% agarose at 4°C; filter binding wash: HEPES 20 mM pH 7.5, MnCl2 10 mM, NaCl 30 mM (binding buffer itself not given); conditions: protein: recombinant; tags: His6; chain copies: 2; label: 5' 32P; blunt

Row | Binder | binding result [1] | binding result [2]
1 | dsattI1 (dsDNA) DNA 1: ACGCCGTGGGTCGATGTTTGATGTTATGGAGCAGCAACGATGTTACGCAGCAGGGCAGTCGCCCTAAAACAAAGTTAGGTGGCTCAATGAGCATCATTGC DNA 2: GCAATGATGCTCATTGAGCCACCTAACTTTGTTTTAGGGCGACTGCCCTGCTGCGTAACATCGTTGCTGCTCCATAACATCAAACATCGACCCACGGCGT | binds | 
2 | dsattC (dsDNA) DNA 1: CGCCCGTCTAACAATTCGTTCAAGCCGACGTTGCTTCGTGGCGGCGCTTGCGTGCTACGCTAAGCTTCGCACGCCGCTTGCCACTGCGCACCGCGGCTTAACTCAGGCGTTAGATGCACT DNA 2: AGTGCATCTAACGCCTGAGTTAAGCCGCGGTGCGCAGTGGCAAGCGGCGTGCGAAGCTTAGCGTAGCACGCAAGCGCCGCCACGAAGCAACGTCGGCTTGAACGAATTGTTAGACGGGCG |  | binds
